T1: human SLC34A2 (human, UniProt O95436 1-690)
T1 construct: whole, on cells; also called human solute carrier 34 A2; NaPi2b
T1 sequence (looked up): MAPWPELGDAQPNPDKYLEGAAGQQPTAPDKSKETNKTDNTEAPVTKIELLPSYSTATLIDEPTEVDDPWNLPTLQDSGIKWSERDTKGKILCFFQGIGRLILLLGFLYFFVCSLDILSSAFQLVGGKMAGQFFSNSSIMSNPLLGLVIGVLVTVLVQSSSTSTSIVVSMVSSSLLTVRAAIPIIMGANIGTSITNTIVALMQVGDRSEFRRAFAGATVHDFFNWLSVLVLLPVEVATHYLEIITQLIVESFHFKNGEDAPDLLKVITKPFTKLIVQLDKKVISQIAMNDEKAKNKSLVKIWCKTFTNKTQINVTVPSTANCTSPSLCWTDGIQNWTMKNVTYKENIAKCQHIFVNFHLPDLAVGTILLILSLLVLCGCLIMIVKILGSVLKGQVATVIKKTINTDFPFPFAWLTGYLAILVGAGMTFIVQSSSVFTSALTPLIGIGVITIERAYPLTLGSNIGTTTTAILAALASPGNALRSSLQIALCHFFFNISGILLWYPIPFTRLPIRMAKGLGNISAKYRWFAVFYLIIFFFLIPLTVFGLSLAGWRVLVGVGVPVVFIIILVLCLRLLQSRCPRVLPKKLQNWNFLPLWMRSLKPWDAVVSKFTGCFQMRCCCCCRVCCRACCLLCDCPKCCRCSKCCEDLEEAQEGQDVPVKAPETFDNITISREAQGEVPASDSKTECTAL


Biological target: T1, human SLC34A2
Test: FACS, OVCAR3 cells
Protocol: The binding of these humanized antibodies to OVCAR3 cells was evaluated as described above, and the results are shown in FIG. 12A-D and Tables 16A-D.

Binder | EC50 [nM] | Top (MFI)
62G10E4G8.p3.z7 hIgG1 (antibody, V domains shown, humanized hIgG1) VH: QVQLVQSGAEVKKPGASVKVSCKASGYTFPSYITHWVRQAPGQGLEWIGAIYPGNADTSYIQKFKGRVTMTADKSTSTVYMELSSLRSEDTAVYYCARGTYGTSAWFTYWGQGTLVTVSS VL: EIVLTQSPATLSVSPGERATLSCRARQNIGNNLYWYQQKPGQSPRLLIKYASQSISGIPSRFSGSGSGTDFTLTISSLQSEDFAVYFCQQSFSWPLTFGQGTKLEIK | 6.08 | 26800
62G10E4G8.p3.z1 hIgG1 (antibody, V domains shown, humanized hIgG1) VH: QVQLVQSGAEVKKPGASVKVSCKASGYTFPSYITHWVRQAPGQGLEWMGAIYPGNADTSYIQKFKGRVTMTRDTSTSTVYMELSSLRSEDTAVYYCARGTYGTSAWFTYWGQGTLVTVSS VL: EIVMTQSPATLSVSPGERATLSCRARQNIGNNLYWYQQKPGQAPRLLIYYASQSISGIPARFSGSGSGTEFTLTISSLQSEDFAVYYCQQSFSWPLTFGQGTKLEIK | 944 | 87700
62G10E4G8.p3.z2 hIgG1 (antibody, V domains shown, humanized hIgG1) VH: QVQLVQSGAEVKKPGASVKVSCKASGYTFPSYITHWVRQAPGQGLEWMGAIYPGNADTSYIQKFKGRVTMTRDTSTSTVYMELSSLRSEDTAVYYCARGTYGTSAWFTYWGQGTLVTVSS VL: EIVMTQSPATLSVSPGERATLSCRARQNIGNNLYWYQQKPGQSPRLLIKYASQSISGIPARFSGSGSGTEFTLTISSLQSEDFAVYFCQQSFSWPLTFGQGTKLEIK | 32.9 | 29700
62G10E4G8.p3.z3 hIgG1 (antibody, V domains shown, humanized hIgG1) VH: QVQLVQSGAEVKKPGASVKVSCKASGYTFPSYITHWVRQAPGQGLEWMGAIYPGNADTSYIQKFKGRVTMTRDTSTSTVYMELSSLRSEDTAVYYCARGTYGTSAWFTYWGQGTLVTVSS VL: EIVLTQSPATLSVSPGERATLSCRARQNIGNNLYWYQQKPGQSPRLLIKYASQSISGIPSRFSGSGSGTDFTLTISSLQSEDFAVYFCQQSFSWPLTFGQGTKLEIK | 17.3 | 31300
62G10E4G8.p3.z4 hIgG1 (antibody, V domains shown, humanized hIgG1) VH: QVQLVQSGAEVKKPGASVKVSCKASGYTFPSYITHWVRQAPGQGLEWMGAIYPGNADTSYIQKFKGRVTMTRDTSTSTVYMELSSLRSEDTAVYYCARGTYGTSAWFTYWGQGTLVTVSS VL: EIVLTQSPATLSASPGERATLSCRARQNIGNNLYWYQQKPGQSPRLLIKYASQSISGIPSRFSGSGSGTDFTLTISSVQSEDFAVYFCQQSFSWPLTFGAGTKLEIK | 16.3 | 29900
62G10E4G8.p3.z5 hIgG1 (antibody, V domains shown, humanized hIgG1) VH: QVQLVQSGAEVKKPGASVKVSCKASGYTFPSYITHWVRQAPGQGLEWIGAIYPGNADTSYIQKFKGRVTMTADKSTSTVYMELSSLRSEDTAVYYCARGTYGTSAWFTYWGQGTLVTVSS VL: EIVMTQSPATLSVSPGERATLSCRARQNIGNNLYWYQQKPGQAPRLLIYYASQSISGIPARFSGSGSGTEFTLTISSLQSEDFAVYYCQQSFSWPLTFGQGTKLEIK | ~1360 | ~230000
62G10E4G8.p3.z6 hIgG1 (antibody, V domains shown, humanized hIgG1) VH: QVQLVQSGAEVKKPGASVKVSCKASGYTFPSYITHWVRQAPGQGLEWIGAIYPGNADTSYIQKFKGRVTMTADKSTSTVYMELSSLRSEDTAVYYCARGTYGTSAWFTYWGQGTLVTVSS VL: EIVMTQSPATLSVSPGERATLSCRARQNIGNNLYWYQQKPGQSPRLLIKYASQSISGIPARFSGSGSGTEFTLTISSLQSEDFAVYFCQQSFSWPLTFGQGTKLEIK | 8.06 | 28200
62G10E4G8.p3.z9 hIgG1 (antibody, V domains shown, humanized hIgG1) VH: QVQLVQSGAEVKKPGASVKVSCKASGYTFPSYITHWVKQAPGQGLEWIGAIYPGNADTSYIQKFKGRVTLTADKSTSTAYMELSSLRSEDTAVYYCARGTYGTSAWFTYWGQGTLVTVSS VL: EIVMTQSPATLSVSPGERATLSCRARQNIGNNLYWYQQKPGQAPRLLIYYASQSISGIPARFSGSGSGTEFTLTISSLQSEDFAVYYCQQSFSWPLTFGQGTKLEIK | 24.1 | 31300
62G10E4G8.p3.z10 hIgG1 (antibody, V domains shown, humanized hIgG1) VH: QVQLVQSGAEVKKPGASVKVSCKASGYTFPSYITHWVKQAPGQGLEWIGAIYPGNADTSYIQKFKGRVTLTADKSTSTAYMELSSLRSEDTAVYYCARGTYGTSAWFTYWGQGTLVTVSS VL: EIVMTQSPATLSVSPGERATLSCRARQNIGNNLYWYQQKPGQSPRLLIKYASQSISGIPARFSGSGSGTEFTLTISSLQSEDFAVYFCQQSFSWPLTFGQGTKLEIK | 4.87 | 27400
62G10E4G8.p3.z12 hIgG1 (antibody, V domains shown, humanized hIgG1) VH: QVQLVQSGAEVKKPGASVKVSCKASGYTFPSYITHWVKQAPGQGLEWIGAIYPGNADTSYIQKFKGRVTLTADKSTSTAYMELSSLRSEDTAVYYCARGTYGTSAWFTYWGQGTLVTVSS VL: EIVLTQSPATLSASPGERATLSCRARQNIGNNLYWYQQKPGQSPRLLIKYASQSISGIPSRFSGSGSGTDFTLTISSVQSEDFAVYFCQQSFSWPLTFGAGTKLEIK | 2.96 | 25400
62G10E4G8.p3.z14 hIgG1 (antibody, V domains shown, humanized hIgG1) VH: QVQLVQSGAEVVKPGASVKMSCKASGYTFPSYITHWVKQAPGQGLEWIGAIYPGNADTSYIQKFKGRATLTADKSTSTAYMELSSLRSEDTAVYYCARGTYGTSAWFTYWGQGTLVTVSS VL: EIVMTQSPATLSVSPGERATLSCRARQNIGNNLYWYQQKPGQSPRLLIKYASQSISGIPARFSGSGSGTEFTLTISSLQSEDFAVYFCQQSFSWPLTFGQGTKLEIK | 4.58 | 27900
62G10E4G8.p3.z16 hIgG1 (antibody, V domains shown, humanized hIgG1) VH: QVQLVQSGAEVVKPGASVKMSCKASGYTFPSYITHWVKQAPGQGLEWIGAIYPGNADTSYIQKFKGRATLTADKSTSTAYMELSSLRSEDTAVYYCARGTYGTSAWFTYWGQGTLVTVSS VL: EIVLTQSPATLSASPGERATLSCRARQNIGNNLYWYQQKPGQSPRLLIKYASQSISGIPSRFSGSGSGTDFTLTISSVQSEDFAVYFCQQSFSWPLTFGAGTKLEIK | 10.9 | 31900
30H9B8F9.p1.z1 hIgG1 (antibody, V domains shown, humanized hIgG1) VH: QVQLVQSGAEVKKPGASVKVSCKASGYTFTTNNMHWVRQAPGQGLEWMGAIYPGSGATAYNQKFKGRVTMTRDTSTSTVYMELSSLRSEDTAVYYCASGMYGHGAMDYWGQGTLVTVSS VL: DIQLTQSPSFLSASVGDRVTITCKASQDVGTAVAWYQQKPGKAPKLLIYWATTRHSGVPSRFSGSGSGTEFTLTISSLQPEDFATYYCQQYSSNPLTFGQGTKLEIK | 2.75 | 27100
30H9B8F9.p1.z2 hIgG1 (antibody, V domains shown, humanized hIgG1) VH: QVQLVQSGAEVKKPGASVKVSCKASGYTFTTNNMHWVRQAPGQGLEWMGAIYPGSGATAYNQKFKGRVTMTRDTSTSTVYMELSSLRSEDTAVYYCASGMYGHGAMDYWGQGTLVTVSS VL: DIQLTQSPSFLSASVGDRVTITCKASQDVGTAVAWYQQKPGKSPKLLIYWATTRHSGVPDRFSGSGSGTEFTFTISSLQPEDFATYFCQQYSSNPLTFGQGTKLEIK | 3.09 | 25200
30H9B8F9.p1.z3 hIgG1 (antibody, V domains shown, humanized hIgG1) VH: QVQLVQSGAEVKKPGASVKVSCKASGYTFTTNNMHWVRQAPGQGLEWMGAIYPGSGATAYNQKFKGRVTMTRDTSTSTVYMELSSLRSEDTAVYYCASGMYGHGAMDYWGQGTLVTVSS VL: DIQMTQSPSFLSASVGDRVTITCKASQDVGTAVAWYQQKPGKSPKLLIYWATTRHSGVPDRFSGSGSGTEFIFTISSVQPEDFATYFCQQYSSNPLTFGAGTKLEIK | 2.38 | 19600
30H9B8F9.p1.z4 hIgG1 (antibody, V domains shown, humanized hIgG1) VH: QVQLVQSGAEVKKPGASVKVSCKASGYTFTTNNMHWVRQAPGQGLEWMGAIYPGSGATAYNQKFKGRVTMTRDTSTSTVYMELSSLRSEDTAVYYCASGMYGHGAMDYWGQGTLVTVSS VL: DIVMTQSPSFLSASVGDRVTITCKASQDVGTAVAWYQQKPGKSPKLLIYWATTRHSGVPDRFTGSGSGTDFIFTISSVQPEDFATYFCQQYSSNPLTFGAGTKLEIK | 2.76 | 20400
30H9B8F9.p1.z7 hIgG1 (antibody, V domains shown, humanized hIgG1) VH: QVQLVQSGAEVKKPGASVKVSCKTSGYTFTTNNMHWVRQAPGQGLEWIGAIYPGSGATAYNQKFKGRVTMTADTSTSTVYMELSSLRSEDTAVYYCARGMYGHGAMDYWGQGTLVTVSS VL: DIQMTQSPSFLSASVGDRVTITCKASQDVGTAVAWYQQKPGKSPKLLIYWATTRHSGVPDRFSGSGSGTEFIFTISSVQPEDFATYFCQQYSSNPLTFGAGTKLEIK | 1.69 | 26700
30H9B8F9.p1.z8 hIgG1 (antibody, V domains shown, humanized hIgG1) VH: QVQLVQSGAEVKKPGASVKVSCKTSGYTFTTNNMHWVRQAPGQGLEWIGAIYPGSGATAYNQKFKGRVTMTADTSTSTVYMELSSLRSEDTAVYYCARGMYGHGAMDYWGQGTLVTVSS VL: DIVMTQSPSFLSASVGDRVTITCKASQDVGTAVAWYQQKPGKSPKLLIYWATTRHSGVPDRFTGSGSGTDFIFTISSVQPEDFATYFCQQYSSNPLTFGAGTKLEIK | 1.9 | 26200

— US20240301052A1 (LANOVA MEDICINES DEVELOPMENT, published 2024)
